Results taken from publication PMC10819704, “Regulatory Role of GgaR (YegW) for Glycogen Accumulation in Escherichia coli K-12” (Microorganisms, 2024).

Experiments:
[1] = biological target: T1, GgaR (YegW) (Escherichia coli K-12 W3110) (UniProt P0ACM5); test: EMSA; conditions: EMSA: binding buffer composition and pH not given; 37 C, 30 min (+30 min with effector); 0.5 pmol probe; 5% PAGE, GelRed stain
T1 sequence: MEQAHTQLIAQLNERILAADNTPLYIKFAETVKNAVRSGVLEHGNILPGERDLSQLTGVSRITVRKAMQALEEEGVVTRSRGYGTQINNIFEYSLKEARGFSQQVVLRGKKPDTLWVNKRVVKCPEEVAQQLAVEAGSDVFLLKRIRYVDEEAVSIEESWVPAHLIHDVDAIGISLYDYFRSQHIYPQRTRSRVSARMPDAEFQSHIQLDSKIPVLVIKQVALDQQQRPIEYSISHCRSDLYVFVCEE

GgaR (YegW) = GgaR (YegW) (Escherichia coli, UniProt P0ACM5); test: gel shift assay: loss of GgaR-DNA complex; type: binding; conditions: 2.0 pmol GgaR, 0.5 pmol fbaB/yegT spacer DNA probe, 10-100 uM ADPG, 37 °C; effector (inducer) releasing the repressor from DNA

Molecule | binding [1] | gel shift assay: loss of GgaR-DNA complex (GgaR (YegW))
TTTCTGATGAATCGAGCCAACAGAAAACGCTGAAAAAACATCCAAAAGATGGAAAAACTCGCCCGTAACGACCAGGATTATGATTGCCCGCAAAAGGCGGGCCAGGACAATCCATAGCCGATATCCAATCGGAATTTACGGGAGCATAGTAATGACAGATATTGCGCAGTTGCTTGGCAAAGACGCCGACAACCTTTTACAGCACCGTTGTATGACAATTCCTTCTGACCAGCTTTATCTCCCCGGACATGACTACGTAGACCGCGTAATGATTG (double strand) [probe-1] | no binding | 
AATCATAATCCTGGTCGTTACGGGCGAGTTTTTCCATCTTTTGGATGTTTTTTCAGCGTTTTCTGTTGGCTCGATTCATCAGAAAAAATGTTAGCGCGGTCAAGTTTTCACCGCAAAGGTATTTAAAAGGTATTATTAAGTGGTATTGTCATCGCGTACCTTACATTACCTGTCATGAAGGAATTAAAAGATGAAAACAACAGCAAAGCTGTCGTTCATGATGTTTGTTGAATGGTTTATC (double strand) [probe-2] | binds | 
AAATGGATATTAAAGTCATGCTCGGCCTGGATGCGCTGATCCTGCTGCGCGATAAAAACTTCCTCGTCTTTTTCTTCTGTTCATTCCTGTTTGCGATGCCACTAGCGTTCTATTACATCTTTGCCAACGGTTATCTGACCGAAGTTGGCATGAAAAACGCCACCGGCTGGATGACGCTCGGCCAGTTCTCTGAAATCTTCTTTATGCTGGCATTGCCGTTTTTCACTAAACGCTTTGGTATCAAAAAGGTATTATTGCTTGGTCTGGTCACCGCTGCGATCCGCTATGGCTTCTTTAT (double strand) [probe-5] | binds more weakly | 
Nc1ncnc2c1ncn2[C@@H]1O[C@H](COP(=O)(O)OP(=O)(O)O[C@H]2O[C@H](CO)[C@@H](O)[C@H](O)[C@H]2O)[C@@H](O)[C@H]1O [ADPG, ADP-glucose] |  | After adding increasing concentrations of ADPG, the complex of GgaR and the fbaB/yegT spacer
